Assay [1] addresses T1, Y2H NINJA-AD (NINJA fused to GAL4 activation domain) (Arabidopsis thaliana).
T1 construct: Prey fusion; also called pDEST22-NINJA
T1 chain: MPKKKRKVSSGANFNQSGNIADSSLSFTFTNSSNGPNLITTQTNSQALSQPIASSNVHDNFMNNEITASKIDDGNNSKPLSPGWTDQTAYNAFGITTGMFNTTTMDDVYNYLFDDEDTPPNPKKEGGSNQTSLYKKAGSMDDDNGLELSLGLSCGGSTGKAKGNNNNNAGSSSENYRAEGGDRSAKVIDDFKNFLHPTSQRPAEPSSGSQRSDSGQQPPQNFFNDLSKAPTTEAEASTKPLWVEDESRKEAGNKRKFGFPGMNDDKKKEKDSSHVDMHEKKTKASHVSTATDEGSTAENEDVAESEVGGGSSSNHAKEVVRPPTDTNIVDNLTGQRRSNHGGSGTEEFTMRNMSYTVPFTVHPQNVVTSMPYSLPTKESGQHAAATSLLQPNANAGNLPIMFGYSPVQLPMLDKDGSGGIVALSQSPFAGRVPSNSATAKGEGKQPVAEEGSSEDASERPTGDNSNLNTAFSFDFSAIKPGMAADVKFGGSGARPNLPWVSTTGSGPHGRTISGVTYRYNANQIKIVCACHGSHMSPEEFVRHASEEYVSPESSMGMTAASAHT
The experiment in a line: yeast two-hybrid.

Assay [2] deals with T2, Y2H PPD1-AD (PPD1 fused to GAL4 activation domain) (Arabidopsis thaliana).
T2 construct: Prey fusion; also called pDEST22-PPD1
T2 chain: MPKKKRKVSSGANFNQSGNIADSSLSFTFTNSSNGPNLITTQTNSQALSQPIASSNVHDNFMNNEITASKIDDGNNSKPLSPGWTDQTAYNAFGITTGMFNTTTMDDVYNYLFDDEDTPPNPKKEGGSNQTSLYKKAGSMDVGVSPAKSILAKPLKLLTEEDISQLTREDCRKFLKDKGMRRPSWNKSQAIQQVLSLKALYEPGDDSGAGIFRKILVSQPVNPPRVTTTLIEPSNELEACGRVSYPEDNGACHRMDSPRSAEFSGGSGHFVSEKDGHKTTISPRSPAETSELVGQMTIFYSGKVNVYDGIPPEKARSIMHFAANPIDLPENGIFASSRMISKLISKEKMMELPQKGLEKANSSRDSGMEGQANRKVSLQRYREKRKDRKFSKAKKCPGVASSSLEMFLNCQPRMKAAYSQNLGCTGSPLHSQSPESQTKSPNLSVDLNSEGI
The experiment in a line: yeast two-hybrid.

The target in assay [3] is T3, Y2H BZR1-AD (BZR1 fused to GAL4 activation domain) (Arabidopsis thaliana).
T3 construct: Prey fusion; also called pDEST22-BZR1
T3 chain: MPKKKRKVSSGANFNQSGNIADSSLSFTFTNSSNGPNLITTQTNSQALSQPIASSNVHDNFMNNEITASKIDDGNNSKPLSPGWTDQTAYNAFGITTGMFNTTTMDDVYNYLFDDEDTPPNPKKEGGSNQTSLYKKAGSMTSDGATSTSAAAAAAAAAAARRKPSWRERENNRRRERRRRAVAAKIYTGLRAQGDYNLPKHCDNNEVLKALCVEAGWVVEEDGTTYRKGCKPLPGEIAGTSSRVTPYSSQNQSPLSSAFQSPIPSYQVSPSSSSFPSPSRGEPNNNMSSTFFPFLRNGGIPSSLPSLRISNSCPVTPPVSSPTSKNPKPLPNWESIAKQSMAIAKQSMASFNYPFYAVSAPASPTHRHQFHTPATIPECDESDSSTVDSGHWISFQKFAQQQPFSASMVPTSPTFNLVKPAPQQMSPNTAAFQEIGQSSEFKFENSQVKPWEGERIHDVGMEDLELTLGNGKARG
Nature of the assay: yeast two-hybrid (ProQuest, MaV203).

In assay [4] the target is T4, Y2H RGA1-AD (DELLA protein RGA1 fused to GAL4 activation domain).
T4 construct: Prey fusion tested against PPD1-DBD as bait; also called DELLA (RGA1)
T4 chain: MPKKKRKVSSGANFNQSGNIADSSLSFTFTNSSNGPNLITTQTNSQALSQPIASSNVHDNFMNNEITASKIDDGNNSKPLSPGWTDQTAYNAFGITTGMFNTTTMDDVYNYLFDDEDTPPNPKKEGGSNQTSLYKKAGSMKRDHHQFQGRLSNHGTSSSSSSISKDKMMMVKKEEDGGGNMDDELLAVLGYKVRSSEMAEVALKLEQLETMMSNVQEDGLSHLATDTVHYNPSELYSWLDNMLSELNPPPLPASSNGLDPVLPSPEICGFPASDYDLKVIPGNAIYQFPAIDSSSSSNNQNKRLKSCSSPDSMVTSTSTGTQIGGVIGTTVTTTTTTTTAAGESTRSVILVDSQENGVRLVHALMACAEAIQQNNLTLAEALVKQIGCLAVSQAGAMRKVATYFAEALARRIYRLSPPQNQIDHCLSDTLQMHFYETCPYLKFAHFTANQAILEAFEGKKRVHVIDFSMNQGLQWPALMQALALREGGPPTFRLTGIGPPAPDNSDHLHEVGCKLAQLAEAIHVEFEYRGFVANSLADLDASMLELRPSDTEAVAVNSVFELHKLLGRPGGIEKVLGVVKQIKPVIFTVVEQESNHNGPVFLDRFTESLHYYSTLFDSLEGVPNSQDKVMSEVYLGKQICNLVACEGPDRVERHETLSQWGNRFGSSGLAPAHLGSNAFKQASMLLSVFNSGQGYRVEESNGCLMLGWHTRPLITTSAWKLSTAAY
The experiment in a line: yeast two-hybrid, PPD1-DBD as bait, selective medium with 15 mM 3AT.

The target of assay [5] is T3, Y2H BZR1-AD (BZR1 fused to GAL4 …). Nature of the assay: yeast two-hybrid.

This is an account of results in patent publication US20180094275A1 (AGRESEARCH, published 2018).

B1: Y2H PPD1-DBD (PPD1 fused to GAL4 DNA binding domain) (other)
chain: MKLLSSIEEACNICRLKKLKCSKEKPKCAKCLKNNWECRYSPKTKRSPLTRAHLTEVESRLERLEQLFLLIFPRENLNMILKMDSLQDIKALLTGLFVQDNVNKDAVTDRLASVETDMPLTLRQHRISATSSSEESSNKGQRQLTVSSRSNQTSLYKKAGSMDVGVSPAKSILAKPLKLLTEEDISQLTREDCRKFLKDKGMRRPSWNKSQAIQQVLSLKALYEPGDDSGAGIFRKILVSQPVNPPRVTTTLIEPSNELEACGRVSYPEDNGACHRMDSPRSAEFSGGSGHFVSEKDGHKTTISPRSPAETSELVGQMTIFYSGKVNVYDGIPPEKARSIMHFAANPIDLPENGIFASSRMISKLISKEKMMELPQKGLEKANSSRDSGMEGQANRKVSLQRYREKRKDRKFSKAKKCPGVASSSLEMFLNCQPRMKAAYSQNLGCTGSPLHSQSPESQTKSPNLSVDLNSEGI
notes: Bait fusion expressed in yeast MaV203; also called pDEST32-PPD1; PPD1 bait
Consider B1, for which the binding result is recorded as “binds” in assay [1], “binds” in assay [2], “no binding” in assay [3] and “binds” in assay [4].

B2: Y2H TPL-DBD (TOPLESS fused to GAL4 DNA binding domain) (other)
chain: MKLLSSIEEACNICRLKKLKCSKEKPKCAKCLKNNWECRYSPKTKRSPLTRAHLTEVESRLERLEQLFLLIFPRENLNMILKMDSLQDIKALLTGLFVQDNVNKDAVTDRLASVETDMPLTLRQHRISATSSSEESSNKGQRQLTVSSRSNQTSLYKKAGSMSSLSRELVFLILQFLDEEKFKETVHKLEQESGFFFNMKYFEDEVHNGNWDEVEKYLSGFTKVDDNRYSMKIFFEIRKQKYLEALDKHDRPKAVDILVKDLKVFSTFNEELFKEITQLLTLENFRENEQLSKYGDTKSARAIMLVELKKLIEANPLFRDKLQFPTLRNSRLRTLINQSLNWQHQLCKNPRPNPDIKTLFVDHSCGPPNGARAPSPVNNPLLGGIPKAGGFPPLGAHGPFQPTASPVPTPLAGWMSSPSSVPHPAVSAGAIALGGPSIPAALKHPRTPPTNASLDYPSADSEHVSKRTRPMGISDEVNLGVNMLPMSFSGQAHGHSPAFKAPDDLPKTVARTLSQGSSPMSMDFHPIKQTLLLVGTNVGDIGLWEVGSRERLVQKTFKVWDLSKCSMPLQAALVKEPVVSVNRVIWSPDGSLFGVAYSRHIVQLYSYHGGEDMRQHLEIDAHVGGVNDISFSTPNKQLCVITCGDDKTIKVWDAATGVKRHTFEGHEAPVYSVCPHYKENIQFIFSTALDGKIKAWLYDNMGSRVDYDAPGRWCTTMAYSADGTRLFSCGTSKDGESFIVEWNESEGAVKRTYQGFHKRSLGVVQFDTTKNRYLAAGDDFSIKFWDMDAVQLLTAIDGDGGLQASPRIRFNKEGSLLAVSGNENVIKIMANSDGLRLLHTFENISSESSKPAINSIAAAAAAAATSAGHADRSANVVSIQGMNGDSRNMVDVKPVITEESNDKSKIWKLTEVSEPSQCRSLRLPENLRVAKISRLIFTNSGNAILALASNAIHLLWKWQRNERNATGKATASLPPQQWQPASGILMTNDVAETNPEEAVPCFALSKNDSYVMSASGGKISLFNMMTFKTMATFMPPPPAATFLAFHPQDNNIIAIGMDDSTIQIYNVRVDEVKSKLKGHSKRITGLAFSNVLNVLVSSGADAQLCVWNTDGWEKQRSKVLPLPQGRPNSAPSDTRVQFHQDQAHFLVVHETQLAIYETTKLECMKQWAVRESLAPITHATFSCDSQLVYASFMDATVCVFSSANLRLRCRVNPSAYLPASLSNSNVHPLVIAAHPQEPNMFAVGLSDGGVHIFEPLESEGKWGVAPPAENGSASGAPTAPSVGASASDQPQR
notes: Bait fusion; also called pDEST32-TPL
Take B2: the binding result in assay [5] and in assay [1] was “binds” each time.
